# In patent US12552837B2, “Bicyclic peptide ligands with detectable moieties and uses thereof” (BicycleRD Limited, priority 2017, dated 2026):
# *1 amine or outer side, *2 acyl side, *3 side chain or, on linkers, in order; H or OH if unused. Where a SMILES comes first, the peptide text is derived from it. Bridges are numbered along the chain shown (N, C = ends). [ ]: non-standard residue; d: D form. The star is where a group is joined. DOTA = O=C(O)CN1CCN(CC(=O)O)CCN(CC(=O)*)CCN(CC(=O)O)CC1; 1Nal = N[C@@H](Cc1cccc2ccccc12)C(=O)O; TBMB = c1c(C[*:1])cc(C[*:3])cc1C[*:2]; Tle = CC(C)(C)[C@H](N)C(=O)O
# Assays:
# [1] = target: MT1-MMP hemopexin domain (Homo sapiens, UniProt P50281); assay: Fluorescence polarization direct binding / competition assay to MT1-MMP hemopexin domain
# Protocol: Direct Binding Fluorescence Polarization or Anisotropy Assays are performed by titrating a constant concentration of fluorescent tracer (here, the fluoresceinated bicyclic peptide to be studied) with its binding partner (here, the MT1-MMP hemopexin domain). As the concentration of binding partner increases during the titration, the polarization signal changes in proportion to the fraction of bound and unbound material. This allows determination of […] (Kd) quantitatively. Assay data can be fit using standard ligand binding equations.
# Typically, concentrations of the tracer are ideally well below the Kd of the tracer: titrant pair, and concentrations chosen are usually at ˜1 nM or less. The titrant (binding partner) concentration is varied from 0.1 nM up to typically 5 μM. The range is chosen such that the maximum change in fluorescent polarization can be observed. Buffers employed are phosphate buffered saline in the presence of 0.01% Tween. Experiments were run in black 384 well low-bind/low volume plates (Corning 3820), and the fluorescent polarization signal was measured using a BMG Pherastar FS plate reader. Fluorescent tracers referred to in the text are bicyclic peptides that have been fluoresceinated using 5,6-carboxyfluorescein. Fluoresceination may be performed on the N-terminal amino group of the peptide, which is separated from the bicycle core sequence by a sarcosine spacer (usually Sar10 (SEQ ID NO: 73)). This can be done during Fmoc solid phase synthesis or post-synthetically (after cyclization with the molecular scaffold reagent and purification) if the N-terminal amino group is unique to the peptide. Fluoresceination can also be performed on the C-terminus, usually on a Lysine introduced as the first C-terminal residue, which is then separated from the bicycle core sequence by a sarcosine spacer (usually Sar6 (SEQ ID NO: 69)). Thus, N-terminal tracers can have a molecular format described as Fluo-Ala-Sar10-A (SEQ ID NO: 72) (BicycleCoreSequence), and (BicycleCoreSequence)-A-Sar6-K (Fluo) (SEQ ID NO: 67) for a C-terminally fluoresceinated construct.
# Fluorescent tracers used in the Examples are A-(17-69)-A-Sar6-K (Fluo) (SEQ ID NO: 67), A-(17-69-07)-A-Sar6-K (Fluo) (SEQ ID NO: 67), and A-(17-69-12)-A-Sar6-K (Fluo) (SEQ ID NO: 67). Due to the acidic nature of the 17-69 fluorescent peptides, they were typically prepared as concentrated DMSO stocks, from which dilution were prepared in 100 mM Tris pH 8 buffer.
# Due to their high affinities to the MT1-MMP Hemopexin domain (PEX), the fluoresceinated derivatives of 17-69-07 and 17-69-12 (denoted as 17-69-07-N040 and 17-69-12-N005, respectively) can be used for competition experiments (using FP for detection). […] Dissociation of the complex can be measured quantitatively, and the Kd of the competitor (titrant) to the target protein determined. The advantage of the competition method is that the affinities of non-fluoresceinated bicyclic peptides can be determined accurately and rapidly.
# Subsequently, the non-fluorescent competitor bicyclic peptide (usually just the bicycle core sequence) is titrated, such that it displaces the fluorescent tracer from the target protein. The displacement of the tracer is measured and associated with a drop in fluorescence polarization. The drop in fluorescence polarization is proportional to the fraction of target protein bound with the non-fluorescent titrant, and thus is a measure of the affinity of titrant to target protein. […]
# [2] = Organ distribution of 177Lu-labelled peptides in HT1080 xenograft mice; assay type: in vivo, BALB/c nu/nu mice; settings: male, BALB/c nu/nu, mouse, HT1080 tumor, iv, total radioactivity; for tissue uptake at 1 h: 1 h p.i.
# Protocol: General procedure for radiolabelling with Lu-177.
# • 50 μL 0.25 M Na-Acetate buffer pH 5.2+0.1% Tween 20; • 10 μL [Lu-177]LuCl3 in 0.05 M HCl; and • 2 μL of the diluted peptide (2 nmols). […]
# Organ distribution studies, general method: For organ distribution, the respective dose is prepared by dilution of the labeling reaction mixture in injection buffer (0.25 M Na-Acetate pH 7+0.05% Tween20). The ^177Lu-radiolabeled peptide was injected via the tail vein of the nu/nu mice (50 kBq per mouse), transplanted with the respective cell line. At indicated time points after injection the animals were sacrificed. Blood, heart, lung, spleen, liver, kidney, muscle, brain, femur, and the tumor were dissected, blotted dry, and weighed. The radioactivity was measured with a γ-counter (CobraII; Canberra Packard) along with a sample of the injection solution to calculate the percentage injected dose per gram of tissue (% ID/g).
# The γ- and β-emitter ^177LuCl3 (NEZ307D, Perkin Elmer, in 0.04 M HCl), with a t1/2 of 6.7 days was used for both in vivo biodistribution and internalization studies. Labeling reactions were performed by adding 10 μL ^177LuCl3 (˜10 MBq) in 50 mM HCl, 2 μL of the diluted peptide (1 mM solution in 50 mM HEPES buffer pH 7+0.1% Tween 20 diluted from a 10 mM DMSO stock) to 50 μL 50 mM HEPES buffer pH 7 supplemented with 0.1% Tween 20. The reaction mixture was incubated at 98° C. for 10 minutes. The radiochemical yield (RCY) was determined using high performance liquid chromatography (HPLC) system equipped with a Latek P402 (Latek, Eppelheim, Germany), a HITACHI variable UV detector (absorbance was measured at 214 and 254 nm) and a gamma detector (Bioscan, WA, USA), using a Chromolith RP-18 column (100×4.6 mm; Merck). The analytical HPLC run was performed at 4 mL/min, using a linear A (0.1% trifluoroacetic acid (TFA) in water) to B (0.1% TFA in acetonitrile) gradient (0% B to 100% B in 6 min). Thin-layer chromatography was performed in parallel to confirm the results of the radio-HPLC. The RCY was generally >95%, and thus, the output of labelling reactions was directly diluted with the appropriate buffer and further unlabeled peptide if required, to use in subsequent experiments.
# 5×10^6 cells of HT1080 were subcutaneously inoculated into the right trunk of male 6-week-old BALB/c nu/nu mice (Charles River Laboratories). The tumors were grown for approximately 1 week, to a maximum size of ˜200 mm^3. Respective doses were prepared by mixing a fixed quantity of 5 pmoles ^177Lu labelled peptides (at approx. 50 kBq) with different quantities of non-labelled peptide (derived from 1 mM stock solution in 0.25 M sodium acetate pH 7+0.05% Tween20) in 100 μL injection buffer (0.25 M sodium acetate pH 7+0.05% Tween20). 3 animals were used per dose and timepoint. Radiolabelled peptide solutions were injected via the tail vein, followed by sacrifice at various time points. Organs of interest (blood, heart, lung, spleen, liver, kidney, muscle, small intestine, brain, HT1080 tumor) were dissected, blotted dry, and weighed. The radioactivity was measured using a gamma counter and calculated as % ID/g.
structure (smiles),measurement,setting,value
C[C@H](NC(=O)CN1CCN(CC(=O)O)CCN(CC(=O)O)CCN(CC(=O)O)CC1)C(=O)N[C@H]1CSCc2cc3cc(c2)CSC[C@H](NC(=O)[C@@H](C)NC(=O)[C@H](Cc2cccc4ccccc24)NC(=O)[C@H](CCC(=O)O)NC(=O)[C@H](CC(N)=O)NC(=O)[C@@H](C)NC1=O)C(=O)N[C@@H](CCC(=O)O)C(=O)N[C@@H](CC(=O)O)C(=O)N[C@@H](Cc1ccccc1)C(=O)N[C@@H](Cc1ccc(O)cc1)C(=O)N[C@@H](CC(=O)O)C(=O)N[C@@H](C(C)(C)C)C(=O)N[C@H](C(N)=O)CSC3 [I-23] ({DOTA}-AC[dA]NE[1Nal][dA]CEDFYD[Tle]C-NH2; linker 2-8-15 via TBMB),Kd,[1],0.52 ± 0.24 nM
same,tissue uptake at 1 h,[2]; 50 kBq per mouse,12 ± 2.37 %ID/g
same,tissue uptake at 24 h,"[2]; 50 kBq per mouse, 24 h p.i.",1.54 ± 0.06 %ID/g
same,tissue uptake at 1 h,[2],12.4 %ID/g
